Target: HIV-1 JR-FL gp120 envelope glycoprotein (HIV-1 JR-FL)
Experiment: cell-based or functional assay

CD4-IgG2 (from UniProt P01730 26-204; P01730 26-204) (Fc fusion)
K (equal to the IC50) for inhibition of HIV-1 env-mediated membrane fusion, RET assay, HeLa-EnvJR-FL and PM1 cells: 0.31 µg/mL
